# In paper PMC10933263 (EMBO Reports, 2024):
# Tests used:
# [1] = molecular target: bovine adenylyl cyclase AC8, purified, tag-free (bovine) (UniProt E1BQ12)
# [2] = molecular target: bovine adenylyl cyclase AC8, purified, tag-free (bovine) (UniProt E1BQ12); remark: listed apart in the source
# [3] = molecular target: bovine adenylyl cyclase AC8, purified, tag-free (bovine, UniProt E1BQ12 1-1253); experiment: cell-based or functional assay
molecule,measurement,setting,value
"Calmodulin (from bovine testes, Sigma-Aldrich P1431) (from UniProt P62157 1-149) (natural protein)","activation of AC8 adenylyl cyclase activity (cAMP accumulation) by CaM in the absence of CaCl2, EC50",[1],86.6 nM
same,"activation of AC8 adenylyl cyclase activity (cAMP accumulation) by CaM in the presence of CaCl2, EC50",[1],4.1 nM
G protein beta gamma subunit (Gβ1γ2) (from UniProt P62871 1-340; P63212 1-71) (complex),"inhibition of AC8 adenylyl cyclase activity (cAMP accumulation) by Gβγ, IC50",[2],400 nM
"bovine G protein αs subunit, GTPγS-activated (natural protein, UniProt P04896-1 1-394, looked up) MGCLGNSKTEDQRNEEKAQREANKKIEKQLQKDKQVYRATHRLLLLGAGESGKSTIVKQMRILHVNGFNGEGGEEDPQAARSNSDGEKATKVQDIKNNLKEAIETIVAAMSNLVPPVELANPENQFRVDYILSVMNVPDFDFPPEFYEHAKALWEDEGVRACYERSNEYQLIDCAQYFLDKIDVIKQDDYVPSDQDLLRCRVLTSGIFETKFQVDKVNFHMFDVGGQRDERRKWIQCFNDVTAIIFVVASSSYNMVIREDNQTNRLQEALNLFKSIWNNRWLRTISVILFLNKQDLLAEKVLAGKSKIEDYFPEFARYTTPEDATPEPGEDPRVTRAKYFIRDEFLRISTASGDGRHYCYPHFTCAVDTENIRRVFNDCRDIIQRMHLRQYELL","activation of AC8 adenylyl cyclase activity (cAMP accumulation) by GTPγS-bound Gαs, EC50",[3],25.5 nM
